# Reference: US20140256912A1, “Stabilized Variant MAML Peptides and Uses Thereof” (PRESIDENT AND FELLOWS OF HARVARD COLLEGE, priority 2011, published 2014)
# Bridge positions count the residues as written; N and C are the ends. Square brackets hold non-standard residues; d marks the D form. Ends that are not written are not given here. S5 = C=CCCC[C@](C)(N)C(=O)O; βAla = NCCC(=O)O
# Key:
# [1] = test system: Notch target genes (HES1, MYC, DTX1); settings: incubated with human T-ALL cells; cited from earlier work
# ICN1-CSL complex = ICN1-CSL complex (Homo sapiens, UniProt P46531+Q06330); settings: cited from earlier work
# [2] = target: T1, Bio-sdnMAML1 binding to GST-RAMANK1-CSL (Homo sapiens, UniProt P46531+Q06330); experiment: ALPHAscreen NTC competition assay; settings: titration of unlabeled peptide (FIG. 2h)
# T1 construct: RAMANK1 (residues 1761-2127) and GST-labeled RAMANK1; Human CSL bearing a C-terminal hexahistidine tag (residues 9-435); hexahistidine (His6) (C); made in house; host or cells: E. coli BL21(DE3) pLysS (proteins); solid-phase peptide synthesis (Bio-sdnMAML1)
# Excerpt: The biophysics of NTC assembly has been studied using relatively low-throughput assays including electrophoretic-mobility shift assays^24, isothermal titration calorimetry^49, and various immunoprecipitation strategies. More recently, Del Bianco et al. reported the use of a FRET-based system measuring the proximity of a donor fluorophore-labeled ANK protein to an acceptor-labeled oligonucleotide upon NTC assembly, which allowed determination of relative equilibrium constants for the entire complex^45. We also reported the use of surface plasmon resonance (SPR) and fluorescence polarization assays measuring the association of NTC components with each other and with stapled peptides^37. To date however, there are no high-throughput assays reported that quantitatively measure dnMAML1-NOTCH-CSL complex formation. […] The ALPHAscreen technology (ALPHA meaning amplified luminescence proximity homogenous assay) employs functionalized beads approximately 200 nm in diameter to detect the association of cognate binding partners in solution^50,51. […] The use of microwave-assisted peptide synthesis and a slightly altered SPPS protocol readily afforded the biotinylated sdnMAML1 peptide (bio-sdnMAML1, and others with alternative N-terminal modifications) at greater than 95% purity by LCMS analysis (FIG. 2b, FIG. 7). […]
# T1 sequence (P46531 1760-2126): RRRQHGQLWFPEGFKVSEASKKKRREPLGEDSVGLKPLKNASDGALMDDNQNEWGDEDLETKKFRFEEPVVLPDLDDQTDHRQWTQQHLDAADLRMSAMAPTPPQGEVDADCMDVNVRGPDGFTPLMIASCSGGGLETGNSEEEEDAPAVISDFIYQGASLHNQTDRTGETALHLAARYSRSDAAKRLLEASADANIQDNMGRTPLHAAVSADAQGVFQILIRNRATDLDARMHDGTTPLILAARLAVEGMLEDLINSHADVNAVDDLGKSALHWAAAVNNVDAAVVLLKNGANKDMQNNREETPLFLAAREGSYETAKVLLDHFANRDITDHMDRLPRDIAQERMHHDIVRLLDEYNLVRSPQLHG
# T1 sequence (Q06330 23-449): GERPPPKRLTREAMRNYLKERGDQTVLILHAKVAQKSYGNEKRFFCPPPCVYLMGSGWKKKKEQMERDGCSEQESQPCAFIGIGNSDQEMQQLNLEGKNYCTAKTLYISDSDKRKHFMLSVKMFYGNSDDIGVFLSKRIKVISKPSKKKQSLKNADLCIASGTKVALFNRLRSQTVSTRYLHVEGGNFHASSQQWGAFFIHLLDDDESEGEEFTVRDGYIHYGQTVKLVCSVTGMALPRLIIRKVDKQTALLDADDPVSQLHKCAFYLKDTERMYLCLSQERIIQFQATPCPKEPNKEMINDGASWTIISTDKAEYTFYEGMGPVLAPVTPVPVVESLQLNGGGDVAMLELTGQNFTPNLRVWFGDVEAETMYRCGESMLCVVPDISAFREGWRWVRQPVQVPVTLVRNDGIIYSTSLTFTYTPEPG
# ICN1-CSL complex, sequence (P46531 1754-2555 limits assumed): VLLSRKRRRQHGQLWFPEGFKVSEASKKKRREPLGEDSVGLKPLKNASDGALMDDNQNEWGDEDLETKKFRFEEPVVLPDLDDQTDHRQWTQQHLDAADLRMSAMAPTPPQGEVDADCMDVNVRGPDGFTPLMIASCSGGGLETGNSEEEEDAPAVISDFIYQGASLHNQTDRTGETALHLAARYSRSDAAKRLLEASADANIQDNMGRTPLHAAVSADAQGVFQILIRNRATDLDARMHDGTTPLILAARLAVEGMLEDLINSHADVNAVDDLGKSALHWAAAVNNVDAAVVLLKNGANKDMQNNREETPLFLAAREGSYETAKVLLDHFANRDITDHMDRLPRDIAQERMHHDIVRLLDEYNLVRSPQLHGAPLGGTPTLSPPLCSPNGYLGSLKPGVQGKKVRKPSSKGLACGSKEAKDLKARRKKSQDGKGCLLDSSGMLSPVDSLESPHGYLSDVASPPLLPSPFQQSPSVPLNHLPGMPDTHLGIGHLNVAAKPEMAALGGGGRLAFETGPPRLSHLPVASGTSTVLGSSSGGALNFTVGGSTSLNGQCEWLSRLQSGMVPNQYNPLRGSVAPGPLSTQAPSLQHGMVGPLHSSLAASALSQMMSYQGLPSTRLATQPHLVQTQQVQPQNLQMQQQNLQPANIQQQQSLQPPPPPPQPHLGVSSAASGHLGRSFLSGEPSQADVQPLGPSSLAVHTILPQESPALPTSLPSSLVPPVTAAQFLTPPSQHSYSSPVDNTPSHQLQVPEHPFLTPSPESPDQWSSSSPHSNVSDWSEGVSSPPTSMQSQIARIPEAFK
# ICN1-CSL complex, sequence (Q06330 whole entry): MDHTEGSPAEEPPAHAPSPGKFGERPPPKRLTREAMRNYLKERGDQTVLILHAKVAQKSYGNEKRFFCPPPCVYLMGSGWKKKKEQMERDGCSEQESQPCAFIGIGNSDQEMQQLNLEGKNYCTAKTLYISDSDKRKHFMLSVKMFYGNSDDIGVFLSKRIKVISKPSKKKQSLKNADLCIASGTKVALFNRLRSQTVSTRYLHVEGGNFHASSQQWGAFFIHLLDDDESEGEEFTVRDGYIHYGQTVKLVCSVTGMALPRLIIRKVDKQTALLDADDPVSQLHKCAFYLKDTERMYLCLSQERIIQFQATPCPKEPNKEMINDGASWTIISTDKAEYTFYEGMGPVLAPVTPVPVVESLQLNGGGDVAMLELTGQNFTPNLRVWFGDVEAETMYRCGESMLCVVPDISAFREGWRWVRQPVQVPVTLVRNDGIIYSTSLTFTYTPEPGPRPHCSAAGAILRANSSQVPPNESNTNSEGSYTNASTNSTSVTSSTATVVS
Substance,expression of canonical Notch target genes [1],binding to ICN1-CSL complex and competition with MAML1 (ICN1-CSL complex),dissociation of pre-incubated bio-sdnMAML1-GSTRAMANK1-CSL complex [2]
"SAHM1: stapled MAML1 E21-T36 peptide with E28 and R32 replaced by i→i+4 ligated α,α-disubstituted S5 amino acids; previously reported (Ac-W[βAla]ERLRRRI[S5]LCR[S5]HHST; staple 10-14)",inhibit the expression of a panel of canonical Notch target genes,specifically bind the ICN1-CSL complex and competitively inhibit binding of recombinant dnMAML1 as well as full-length MAML1,–
"Ac-sdnMAML1: non-labeled competitor dnMAML1 peptide capped with an acetylated beta-alanine spacer ({Ac-βAla}-HSAVMERLRRRIELCRRHHSTCEARYEAVSPERLELERQHTFALHQRCIQAKAKR; staple (positions not given here); also: stapled, staple positions not given here)",–,–,dose-dependent dissociation of the complex
